Earlier results, collected in PMC3466315.

Target: NifL 1-140 (Azotobacter vinelandii) (UniProt P30663)
Conditions: cited from earlier work

Sequence of NifL 1-140 (P30663 1-140): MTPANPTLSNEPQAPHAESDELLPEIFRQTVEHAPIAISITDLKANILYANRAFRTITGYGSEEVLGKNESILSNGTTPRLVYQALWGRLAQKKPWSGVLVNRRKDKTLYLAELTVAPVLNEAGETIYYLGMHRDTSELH

Q: With NifL 1-140 (from UniProt P30663) as the substance, how does the Kd read?
A: The Kd was 150 nM.
